The assay deals with T1, Tsr1–TAP (S. cerevisiae, UniProt Q07381 1-788).
T1 sequence (looked up): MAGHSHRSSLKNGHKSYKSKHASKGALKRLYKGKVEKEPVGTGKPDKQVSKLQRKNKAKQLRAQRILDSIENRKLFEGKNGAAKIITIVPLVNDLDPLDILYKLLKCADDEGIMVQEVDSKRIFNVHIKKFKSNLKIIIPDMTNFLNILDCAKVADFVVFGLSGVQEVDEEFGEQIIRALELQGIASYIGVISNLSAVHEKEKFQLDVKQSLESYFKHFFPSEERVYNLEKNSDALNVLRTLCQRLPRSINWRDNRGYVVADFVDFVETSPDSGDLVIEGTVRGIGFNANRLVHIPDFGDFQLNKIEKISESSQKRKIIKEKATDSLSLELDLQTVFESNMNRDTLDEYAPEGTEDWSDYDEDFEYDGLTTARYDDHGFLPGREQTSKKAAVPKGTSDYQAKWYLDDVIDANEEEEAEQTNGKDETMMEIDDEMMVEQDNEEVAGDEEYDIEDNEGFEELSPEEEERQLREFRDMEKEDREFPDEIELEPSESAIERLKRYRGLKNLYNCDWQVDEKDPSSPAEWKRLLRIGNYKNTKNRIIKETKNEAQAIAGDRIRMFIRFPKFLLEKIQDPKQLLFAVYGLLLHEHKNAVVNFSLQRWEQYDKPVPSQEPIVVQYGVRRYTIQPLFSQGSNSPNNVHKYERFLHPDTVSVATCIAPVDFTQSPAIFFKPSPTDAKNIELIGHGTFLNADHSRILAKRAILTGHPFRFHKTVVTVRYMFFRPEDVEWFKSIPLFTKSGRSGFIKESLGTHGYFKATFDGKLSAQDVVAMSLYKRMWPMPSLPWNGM
Briefly: co-sedimentation.

B1: recombinant Rio2 (Rio2-HA) (natural protein, yeast, UniProt P40160 1-425, looked up)
chain: MKLDTSHMRYLTTDDFRVLQAVEQGSRSHEVVPTPLIHQISGMRSQSGTNRAISDLAKLSLISKMRNVKYDGYRLTYNGIDYLALKTMLNRDTVYSVGNTIGVGKESDIYKVSDKNGNPRVMKIHRLGRTSFHSVRNNRDYLKKSNQGANWMHLSRLAANKEYQFMSMLYSKGFKVPEPFDNSRHIVVMELIEGYPMRRLRKHKNIPKLYSDLMCFIVDLANSGLIHCDFNEFNIMIKDKLEDENDCGFVVIDFPQCISIQHQDADYYFQRDVDCIRRFFKKKLKYEPKPDSSMLDTEGFGDGYKYAYPDFKRDVKRTDNLDELVQASGFSKKHPGDRGLETAVESMRNAVYNSDDDMSNDEAEEENGEGDYSEEDEYYDSELDNESSEDDSEDAQEEENERIIEALSSGVENLKMDKLGNYILE
As for B1, the binding result was “binds”.

The record behind these values is publication PMC8848936 (RNA, 2022).
